Experimental data reported in article PMC3433420, “Comprehensive Binary Interaction Mapping of SH2 Domains via Fluorescence Polarization Reveals Novel Functional Diversification of ErbB Receptors” (PLoS ONE, 2012).
Values joined by “and” are separate entries in the source; they are usually repeats but may differ in a detail not shown here. Identical values can stand only once. Non-standard residues stand in square brackets, D forms with d. No end group written: not given here. pY = N[C@@H](Cc1ccc(OP(=O)(O)O)cc1)C(=O)O; Rhodamine = not defined here

How the values were obtained:
Assay in all cases: peptide or protein array; SH2/PTB proteins spotted on aldehyde slides, rhodamine peptide titrated in buffer B (20 mM HEPES, 100 mM KCl, 0.1% Tween-20, 5 mM DTT, pH 7.8), 1 h at room temperature; replicate assays
Details in all cases: both partners purified
[1] = target: T1, TNS3 SH2 domain (human, UniProt Q68CZ2 1172-1282)
T1 construct: TNS3, human; source: bacterial expression, purified
T1 sequence (looked up): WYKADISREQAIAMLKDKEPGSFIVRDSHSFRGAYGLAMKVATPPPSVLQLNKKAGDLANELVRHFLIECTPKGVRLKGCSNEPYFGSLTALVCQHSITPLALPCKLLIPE

[2] = target: T2, NCK1 SH2 domain (human, UniProt P16333 282-376)
T2 construct: NCK1, human; source: bacterial expression, purified

[3] = target: T3, SH2D1B SH2 domain (human, UniProt O14796 5-101)
T3 construct: SH2D1B, human; source: bacterial expression, purified
T3 sequence (looked up): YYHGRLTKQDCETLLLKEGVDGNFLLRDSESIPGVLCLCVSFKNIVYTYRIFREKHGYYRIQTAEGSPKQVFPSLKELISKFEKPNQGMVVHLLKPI

[4] = target: SYK tandem SH2 domains (human)
[5] = target: T4, SH2D2A SH2 domain (human, UniProt Q9NP31 95-186)
T4 construct: SH2D2A, human; source: bacterial expression, purified
T4 sequence (Q9NP31 95-186): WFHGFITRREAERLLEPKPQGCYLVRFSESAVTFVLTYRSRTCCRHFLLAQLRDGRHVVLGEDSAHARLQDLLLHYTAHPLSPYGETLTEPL

[6] = target: T5, VAV1 SH2 domain (human, UniProt P15498 671-765)
T5 construct: VAV1, human; source: bacterial expression, purified
T5 sequence (looked up): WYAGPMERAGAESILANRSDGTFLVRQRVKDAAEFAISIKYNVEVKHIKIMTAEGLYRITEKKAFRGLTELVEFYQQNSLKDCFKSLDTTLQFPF

[7] = target: T6, GRB10 SH2 domain (human, UniProt Q13322 493-574)
T6 construct: GRB10, human; source: bacterial expression, purified
T6 sequence (looked up): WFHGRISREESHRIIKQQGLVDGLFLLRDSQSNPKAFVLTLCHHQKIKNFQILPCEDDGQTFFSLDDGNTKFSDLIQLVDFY

[8] = target: T7, PTK6 SH2 domain (human, UniProt Q13882 78-170)
T7 construct: PTK6, human; source: bacterial expression, purified
T7 sequence (Q13882 78-170): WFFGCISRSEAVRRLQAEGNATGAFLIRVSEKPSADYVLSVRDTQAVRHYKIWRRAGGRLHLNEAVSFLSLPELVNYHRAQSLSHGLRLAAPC

[9] = target: T8, PIK3R2 tandem SH2 domains (human, UniProt O00459 1-728)
T8 construct: PIK3R2, human; also called PIK3R2-NC; source: bacterial expression, purified
T8 sequence (O00459 whole entry, the tested form may be a part): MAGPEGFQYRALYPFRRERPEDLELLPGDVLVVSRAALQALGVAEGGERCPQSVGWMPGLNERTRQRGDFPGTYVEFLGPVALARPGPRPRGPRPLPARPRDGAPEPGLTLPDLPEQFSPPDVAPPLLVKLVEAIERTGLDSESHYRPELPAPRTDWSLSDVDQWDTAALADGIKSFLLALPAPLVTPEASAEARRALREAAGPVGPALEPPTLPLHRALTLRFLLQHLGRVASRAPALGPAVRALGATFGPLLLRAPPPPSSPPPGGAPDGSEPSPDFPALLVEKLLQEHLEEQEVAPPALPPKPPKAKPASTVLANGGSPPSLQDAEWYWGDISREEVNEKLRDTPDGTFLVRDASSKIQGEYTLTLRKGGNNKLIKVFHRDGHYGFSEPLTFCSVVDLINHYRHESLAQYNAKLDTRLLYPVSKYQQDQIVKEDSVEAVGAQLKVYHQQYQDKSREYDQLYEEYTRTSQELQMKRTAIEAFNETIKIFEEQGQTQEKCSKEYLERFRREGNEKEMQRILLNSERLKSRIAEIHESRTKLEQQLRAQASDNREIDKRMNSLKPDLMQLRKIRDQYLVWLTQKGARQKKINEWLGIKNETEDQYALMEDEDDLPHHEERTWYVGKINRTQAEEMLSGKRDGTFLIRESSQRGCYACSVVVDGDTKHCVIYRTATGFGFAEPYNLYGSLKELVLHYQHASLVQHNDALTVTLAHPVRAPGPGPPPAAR

[10] = target: T9, CRK SH2 domain (human, UniProt P46108 13-118)
T9 construct: CRK, human; source: bacterial expression, purified
T9 sequence (P46108 13-118): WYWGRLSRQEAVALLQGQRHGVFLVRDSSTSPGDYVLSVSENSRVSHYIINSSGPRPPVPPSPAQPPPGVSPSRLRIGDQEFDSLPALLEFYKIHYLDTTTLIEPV

[11] = target: T10, BCAR3 SH2 domain (human, UniProt O75815 154-253)
T10 construct: BCAR3, human; source: bacterial expression, purified
T10 sequence (looked up): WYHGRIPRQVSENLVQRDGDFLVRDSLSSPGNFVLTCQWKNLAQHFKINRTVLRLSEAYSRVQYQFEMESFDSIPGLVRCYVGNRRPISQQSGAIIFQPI

[12] = target: T11, SH2B3 SH2 domain (human, UniProt Q9UQQ2 364-462)
T11 construct: SH2B3, human; source: bacterial expression, purified
T11 sequence (Q9UQQ2 364-462): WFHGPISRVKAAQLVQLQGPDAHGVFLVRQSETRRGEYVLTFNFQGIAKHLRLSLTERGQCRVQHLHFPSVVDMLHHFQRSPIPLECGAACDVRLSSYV

[13] = target: T12, GRB7 SH2 domain (human, UniProt Q14451 431-527)
T12 construct: GRB7, human; source: bacterial expression, purified
T12 sequence (Q14451 431-527): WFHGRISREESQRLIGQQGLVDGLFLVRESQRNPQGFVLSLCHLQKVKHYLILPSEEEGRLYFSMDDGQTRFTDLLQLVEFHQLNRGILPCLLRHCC

Rhodamine-ETDG[pY]VAPLTCSD (reading uncertain) [ErbB2 pY1127 phosphopeptide, rhodamine-labelled, for protein microarrays]
Kd [1]: 5960 nM | Kd [2]: 6850 nM | Kd [3]: 2280 nM | Kd [4]: 1300 nM and 957 nM | Kd [5]: 2750 nM | Kd [6]: 186 nM and 91.6 nM | Kd [7]: 1900 nM and 2340 nM | Kd [8]: 4180 nM and 1570 nM | Kd [9]: 10.6 nM and 4.66 nM | Kd [10]: 7710 nM | Kd [11]: 726 nM | Kd [12]: 1380 nM and 2300 nM | Kd [13]: 1600 nM and 2530 nM
